US10358638B2, “Method of producing 1,5-pentadiamine using lysine decarboxylase mutant having improved thermal stability” (AJINOMOTO CO., INC., priority 2014, dated 2019)

Columns and labels:
[1] = Remaining lysine decarboxylase activity of cell free extract after incubation at 65° C.; format: biochemical, Escherichia coli
Protocol: (§1) The activity of the lysine decarboxylase was measured according to the method described in JP patent application laid-open Publication No. 2008-193899. 0.1 mL of a microbial cell suspension or a treated product thereof was added to 1 mL of a reaction solution containing 100 mM MES-NaOH buffer (pH 6.0), 10 g/L (55 mM) of L-lysine hydrochloride and 26.5 mg/L (0.1 mM) of PLP, and then the reaction mixture was incubated at 37° C. for 5 minutes. 0.1 mL of the reaction solution was collected and added to 1 mL of 1% (v/v) phosphoric acid to stop the reaction. Lysine and 1,5-PD were quantified with HPLC by a post column OPA method (S. R. Vale and M. B. Gloria, Journal Of AOAC International (1997) vol. 80, p. 1006-1012) or a method of quantifying remaining L-lysine using a biosensor BF-5 (Oji Scientific Instruments Co., Ltd.). One unit was defined as an activity that formed 1 μmol of 1,5-PD in one minute under this condition.
Each transformant was inoculated to 50 mL of L medium in a 500 mL Sakaguchi flask containing 100 μg/mL of ampicillin and cultured with shaking at 30° C. for 16 hours. Microbial cells were collected from the cultured medium by centrifugation, washed once with saline, subsequently suspended in 5 mL of 100 mM potassium phosphate buffer (pH 7.0), and disrupted by sonication at 4° C. for 20 minutes. An insoluble fraction was removed by centrifuging the lysate solution at 8,000 rpm for 10 minutes to prepare a cell free extract.
The resulting cell free extract was diluted 20 fold with 100 mM MES-NaOH buffer (pH 6.0). This crude enzyme solution was incubated at 65° C., and its remaining activity after 3 and 5 hours was measured by the method described in Example 1. As a result, the activity in the crude enzyme solution from the strain expressing the mutated enzyme before incubation was almost the same as that from the strain expressing the wild-type enzyme (Table 3).

[2] = Enzyme activity of culture media of expressing strains after heat treatment with or without disruption; format: cell-based, Escherichia coli
Protocol: as §1
Microbial cells of E. coli JM109/pCadA220 and E. coli JM109/pCadA234 carrying the wild-type CadA and the double mutant CadA, respectively were cultured in the LB medium. Subsequently, 15 mL of the cultured medium was inoculated into 300 mL of culture medium (25 g/L of glucose, 5 g/L of ammonium sulfate, 2 g/L of potassium phosphate, 1 g/L of magnesium sulfate heptahydrate, 20 mg/L of iron sulfate heptahydrate, 20 mg/L of manganese sulfate pentahydrate, 1 mg/L of thiamine hydrochloride, 0.45 g/L of hydrolyzed soybeans, pH 7.0) in a 500 mL jar fermenter (manufactured by ABLE & Biott Co., Ltd.), and cultured with ventilation at 300 mL/minute while stirring at 250 rpm at 30° C. for 12 hours. Culture media containing 10.1 g/L and 10.9 g/L of microbial cells in terms of dry microbial cell weight were able to be prepared for E. coli JM109/pCadA220 and E. coli JM109/pCadA234, respectively. For the purpose of improving substrate permeability, the pH value was adjusted to 5.5, and subsequently the culture media were incubated at 55° C. and 60° C., and then the culture media were directly used to measure the activity after the incubation.
Since the lysine decarboxylase is expressed within the microbial cell, when the microbial cell is used directly, lysine cannot react with the lysine decarboxylase, and the efficiency of a decarboxylation reaction is very poor. […] However, the wild-type enzyme was inactivated during the incubation when heated excessively. The mutated enzyme having the improved thermal stability could stably keep its activity even when using conditions where the wild-type enzyme was easily inactivated as shown in Example 2. When the microbial cells carrying such a mutated enzyme were used, efficient treatment in a short period of time was possible. This has shown that the mutated enzyme not only can act at higher temperature upon reaction but also can be easily used when the microbial cell is directly used.

[3] = Remaining lysine decarboxylase activity of cell free extract after incubation at 68° C.; format: biochemical, Escherichia coli; conditions: 68° C., 1 hour, FIG. 1
Protocol: as §1
A combination mutant for increasing the amount of expressed CadA was constructed using QuikChange™ Site-Directed Mutagenesis Kit (Stratagene). A mutation to alter from Val (GTT) to Ile ([…]) at position 3 was introduced using the plasmid pCadA233 as the template and using oligonucleotides v3i_r (5′-cat gtg att caa tat tgc aat aat gtt cat cta cat tcc tcc tta cg-3′(SEQ ID NO:11)) and v3i_f (5′-cgt aag gag gaa tgt aga tga aca tta ttg caa tat tga atc aca tg-3′ (SEQ ID NO:12)) as primers according to a protocol. The nucleotide sequence of the constructed plasmid was determined by the method described in Example 2 to confirm that the objective mutation had been introduced, and this plasmid was designated as pCadA234. Microbial cells of E. coli JM109/pCadA234 expressing this double mutant CadA234 at high level were cultured to prepare a cell free extract in the same manner as in Example 2. The activity in this cell free extract was 663 U/mL, which was almost the same as that from the strain expressing the wild-type enzyme.
The resulting cell free extract was diluted to 20 fold with 0.1 M MES-NaOH buffer (pH 6.0). Each crude enzyme solution was incubated at 68° C., which is a higher temperature than in Example 2, and the remaining activity was measured over time. After incubation at 68° C. for one hour, the wild-type enzyme was inactivated to 27% while the single mutant enzymes V3I and A590T were inactivated to 47% and 27%, respectively. On the contrary, the double mutant enzyme retained 70% of its activity, and even after 3 hours, still retained about 60% of its activity (FIG. 1). Therefore, it was shown that the double mutation has a synergistic effect and further improved the thermal stability.

[4] = cell free extract diluted 20 fold, before heating
[5] = Incubation at 55° C. for 1 h, Disruption
[6] = Incubation at 55° C. for 1 h, physical treatment None
[7] = Incubation at 55° C. for 3 h, Disruption
[8] = Incubation at 55° C. for 3 h, physical treatment None
[9] = Incubation at 60° C. for 1 h, Disruption
[10] = Incubation at 60° C. for 1 h, physical treatment None
[11] = No heat treatment, physical treatment None

B1: pCadA220: wild-type lysine decarboxylase (CadA) derived from Escherichia coli W3110, expressed from plasmid pCadA220 (protein, UniProt P0A9H3 1-715, looked up)
Inducible lysine decarboxylase: MNVIAILNHMGVYFKEEPIRELHRALERLNFQIVYPNDRDDLLKLIENNARLCGVIFDWDKYNLELCEEISKMNENLPLYAFANTYSTLDVSLNDLRLQISFFEYALGAAEDIANKIKQTTDEYINTILPPLTKALFKYVREGKYTFCTPGHMGGTAFQKSPVGSLFYDFFGPNTMKSDISISVSELGSLLDHSGPHKEAEQYIARVFNADRSYMVTNGTSTANKIVGMYSAPAGSTILIDRNCHKSLTHLMMMSDVTPIYFRPTRNAYGILGGIPQSEFQHATIAKRVKETPNATWPVHAVITNSTYDGLLYNTDFIKKTLDVKSIHFDSAWVPYTNFSPIYEGKCGMSGGRVEGKVIYETQSTHKLLAAFSQASMIHVKGDVNEETFNEAYMMHTTTSPHYGIVASTETAAAMMKGNAGKRLINGSIERAIKFRKEIKRLRTESDGWFFDVWQPDHIDTTECWPLRSDSTWHGFKNIDNEHMYLDPIKVTLLTPGMEKDGTMSDFGIPASIVAKYLDEHGIVVEKTGPYNLLFLFSIGIDKTKALSLLRALTDFKRAFDLNLRVKNMLPSLYREDPEFYENMRIQELAQNIHKLIVHHNLPDLMYRAFEVLPTMVMTPYAAFQKELHGMTEEVYLDEMVGRINANMILPYPPGVPLVMPGEMITEESRPVLEFLQMLCEIGAHYPGFETDIHGAYRQADGRYTVKVLKEESKK
- Activity after incubation at 65° C. for 3 h ([1]; 65° C., 3 h): 413 Units/mL
- Remaining activity after incubation at 65° C. for 3 h ([1]; 65° C., 3 h, relative to before heating): 59.2%
- Activity after incubation at 65° C. for 5 h ([1]; 65° C., 5 h): 360 Units/mL
- Remaining activity after incubation at 65° C. for 5 h ([1]; 65° C., 5 h, relative to before heating): 51.6%
- Remaining activity after incubation at 65° C. for 5 h ([1]; 65° C., 5 h, relative to before heating, listed as wild-type enzyme): reduced by half
- Activity before heating [1, 4]: 697 Units/mL
- Activity before heating, remaining activity [1, 4]: 100%
- Enzyme activity [2, 5]: 819 units/ml
- Relative activity [2, 5]: 89.6%
- Enzyme activity [2, 6]: 246 units/ml
- Relative activity [2, 6]: 26.9%
- Enzyme activity [2, 7]: 730 units/ml
- Relative activity [2, 7]: 79.9%
- Enzyme activity [2, 8]: 375 units/ml
- Relative activity [2, 8]: 41.0%
- Enzyme activity [2, 9]: 798 units/ml
- Relative activity [2, 9]: 87.3%
- Enzyme activity [2, 10]: 282 units/ml
- Relative activity [2, 10]: 30.9%
- Enzyme activity ([2]; No heat treatment, Disruption): 914 units/ml
- Relative activity ([2]; No heat treatment, Disruption): 100%
- Enzyme activity [2, 11]: 17.5 units/ml
- Relative activity [2, 11]: 1.9%
- remaining activity after incubation at 68° C. for one hour [3]: 27%
